Measured values published in patent US10654908B2, “Isolated T cell receptors and methods of use therefor” (University of Virginia Patent Foundation, priority 2014, dated 2020).
Where no end group is shown, it is not given here. [ ]: non-standard residue; d: D form. pS = N[C@@H](COP(=O)(O)O)C(=O)O

B1: pCDC25b-specific TCR: murine TCR binding GLLGpSPVRA/HLA-A2; α chain SEQ ID NO: 14, β chain SEQ ID NO: 16; tested expressed in human CD8 T-cells (protein, listed as Mus musculus)
alpha: MKTVTGPLFLCFWLQLNCVSRGEQVEQRPPHLSVREGDSAVIICTYTDPNSYYFFWYKQEPGAGLQLLMKVFSSTEINEGQGFTVLLNKKDQQLSLNLTAAHPGDSAVYFCAVKPGGYKVVFGSGTRLLVSPDIQNPEPAVYQLKDPRSQDSTLCLFTDFDSQINVPKTMESGTFITDKTVLDMKAMDSKSNGAIAWSNQTSFTCQDIFKETNATYPSSDVPCDATLTEKSFETDMNLNFQNLSVMGLRILLLKVAGFNLLMTLRLWSS
beta: MSNTAFPDPAWNTTLLSWVALFLLGTKHMEAAVTQSPRNKVAVTGGKVTLSCNQTNNHNNMYWYRQDTGHGLRLIHYSYGAGSTEKGDIPDGYKASRPSQENFSLILELATPSQTSVYFCASGGDTQYFGPGTRLLVLEDLRNVTPPKVSLFEPSKAEIANKQKATLVCLARGFFPDHVELSWWVNGKEVHSGVSTDPQAYKERNYSYCLSSRLRVSATFWHNPRNHFRCQVQFHGLSEEDKWPEGSPKPVTQNISAEAWGRADCGITSASYHQGVLSATILYEILLGKATLYAVLVSGLVLMAMVKKKNS

Tests used:
[1] = system: human CD8 T-cells; assay: IFN-γ ELISpot of human CD8 T-cells cultured 7 days with peptide-pulsed DC; type: cell-based; conditions: for donors with pre-existing memory response: CD45RO+ CD8 T-cells from four donors, 7 days, cutoff >50 spots/25,000 cells; for magnitude of phosphopeptide-specific IFN-γ responses of normal donor T-cells: bulk CD8 T-cells, 7 days with peptide-pulsed autologous DC, restimulated with phosphopeptide-pulsed HLA-A2+ targets
[2] = Immunization of AAD transgenic mice with phosphopeptide-pulsed DC; conditions: mouse
[3] = system: AAD+ SLM2 melanoma cells; assay: Tumor control after adoptive transfer of TCR-expressing human CD8 T-cells; type: in vivo, NOD/SCID/IL-2Rγc−/− mice
From the text: Seven to 8 week old male […] mice (The Jackson Laboratory, Bar Harbor, Me., United States of America) were inoculated subcutaneously with 1.4×10^6 AAD^+ SLM2 melanoma cells. 3×10^6 human CD8 T-cells expressing either pIRS-2- or pCDC25b-specific TCR, or 1.5×10^6 of both populations, were adoptively transferred 3 days later. An additional 1.5×10^6 T-cells were given 4 days later. All mice received 1500 CU of IL-2 (R&D Systems, Inc., Minneapolis, Minn., United States of America) […]. every other day for 10 days. Tumor size was measured every 2-3 days with a digital caliper, and calculated as L×W (mm^2). Tumor free survival is equal to the measurement day when the tumor size was >30 mm^2.
Log-rank (Mantel Cox Test) analysis, Cox proportional hazard modeling, and parametric modeling were performed to determine statistical significance where indicated. p values less than 0.05 were considered significant.

[4] = system: pCDC25b38-46-pulsed C1R-AAD and C1R-A2 targets; assay: CD107a / IFN-γ flow cytometry of TCR-electroporated human CD8 T-cells on pCDC25b peptide-pulsed targets; type: cell-based
Protocol: Prior to electroporation, donor T-cells were washed three times in serum-free OPTI-MEM® media (Life Technologies Corporation, Gaithersburg, Md., United States of America) and were suspended at 25×10^6/ml. Cells were mixed with 2 μg IVT RNA of each TCR α and β chain per 10^6 cells and transferred to pre-chilled BTX 2 mm gap cuvettes. Using the BTX T820 electroporation system (BTX Instrument Division, Harvard Apparatus, Inc. Holliston, Mass., United States of America), cells were pulsed at 500V for 0.3 msec. Transfected cells were placed in AIM-V® brand serum-free medium (Life Technologies Corporation, Gaithersburg, Md., United States of America) with 5% AB^+ serum (GEMCELL™; Gemini Bio-Products, West Sacramento, Calif., United States of America) for 8-24 hours and evaluated for TCR expression and functionality.
14-16 hours post-electroporation, phosphopeptide-specific murine TCR-transfected human CD8 T-cells were co-cultured in AIM-V (Life Technologies Corporation, Gaithersburg, Md., United States of America) supplemented with 5% human AB^+ serum (GEMCELL™; Gemini Bio-Products, West Sacramento, Calif., United States of America) with peptide-pulsed or unpulsed C1R-AAD, C1R-A2, or cancer cells endogenously expressing the pIRS-21097-1105 or the pCDC25b38-46 phosphopeptide. Cell surface expression of mouse TCRβ, human CD3, and human CD8 molecules on human CD8 T-cells were assessed using antibodies from either Becton Dickinson Bioscience (San Jose, Calif., United States of America) or eBioScience Inc. (San Diego, Calif., United States of America). […] Cells were then stained for surface molecule expression, fixed and permeabilized using CYTOFIX/CYTOPERM™ (Becton Dickinson Bioscience (San Jose, Calif., United States of America) and stained for intracellular cytokine (anti-IFN-γand anti-TNF-α, eBioScience Inc., San Diego, Calif., United States of America). Immunofluoresence was analyzed using the Becton Dickinson FACSCANTO™ I or FACSCANTO™II flow cytometer and analyzed using FlowJo software (Tree Star, Inc., Ashland, Oreg., United States of America).

[5] = system: HLA-A2+ cancer cell lines; assay: CD107a / IFN-γ flow cytometry after co-culture with human cancer cells; type: cell-based
Protocol: 14-16 hours post-electroporation, phosphopeptide-specific murine TCR-transfected human CD8 T-cells were co-cultured in AIM-V (Life Technologies Corporation, Gaithersburg, Md., United States of America) supplemented with 5% human AB^+ serum (GEMCELL™; Gemini Bio-Products, West Sacramento, Calif., United States of America) with peptide-pulsed or unpulsed C1R-AAD, C1R-A2, or cancer cells endogenously expressing the pIRS-21097-1105 or the pCDC25b38-46 phosphopeptide. Cell surface expression of mouse TCRβ, human CD3, and human CD8 molecules on human CD8 T-cells were assessed using antibodies from either Becton Dickinson Bioscience (San Jose, Calif., United States of America) or eBioScience Inc. (San Diego, Calif., United States of America). During a 5 hour co-culture of stimulator cells with phosphopeptide-specific murine TCR-transfected human CD8-T cells at 37° C., anti-human CD107a-Alexa 647 antibody (eBioScience Inc., San Diego, Calif., United States of America) was added in the presence of 5 μg/ml Brefeldin A (SIGMA-ALDRICH® Co. LLC, St. Louis, Mo., United States of America), 5 μg/ml Monensin (eBioScience Inc., San Diego, Calif., United States of America) and 300 IU/ml human IL-2 (Chiron Corporation, Emeryville, Calif., United States of America). Cells were then stained for surface molecule expression, fixed and permeabilized using CYTOFIX/CYTOPERM™ (Becton Dickinson Bioscience (San Jose, Calif., United States of America) and stained for intracellular cytokine (anti-IFN-γand anti-TNF-α, eBioScience Inc., San Diego, Calif., United States of America). Immunofluoresence was analyzed using the Becton Dickinson FACSCANTO™ I or FACSCANTO™II flow cytometer and analyzed using FlowJo software (Tree Star, Inc., Ashland, Oreg., United States of America).
Whether these transfected human CD8 T-cells could recognize endogenously processed and presented pIRS-21097-1105 or pCDC25b38-46 phosphopeptide on HLA-A2^+ cancer cell lines was investigated. To correlate pIRS-21097-1105-specific T-cell recognition with phosphopeptide expression, an antibody specific for the Ser^1100-phosphorylated IRS-2 protein (pSer^1100-IRS-2) as well as an antibody that recognizes total IRS-2 protein (Zarling et al., 2006) were employed. […] These two cell lines also expressed high levels of pSer^1100-IRS-2 (FIG. 4). […] There is no specific antibody for Ser^42-phosphorylated CDC25b.

[6] = system: C1R-A2 cells pulsed with 1 μM phosphopeptide; assay: In vitro cytotoxicity assay (CFSE); type: cell-based, human; conditions: 5 hours co-culture, pulsed versus unpulsed C1R-A2
Protocol: Phosphopeptide-specific murine TCR-expressing human CD8 T-cells were co-cultured for 5 hours with a 1:1 mix of C1R-A2 cells pulsed with 1 μM phosphopeptide and stained with 1 μM carboxyfluorescein succinimidyl ester (CFSE; Life Technologies) and unpulsed C1R-A2 cells stained with 0.1 μM CFSE. Specific killing was assessed by evaluating percent loss of the peptide-pulsed population relative to the unpulsed population.

[7] = recognized / evaluated cell lines

Molecule	immunogenicity in vitro for human T-cells [1]	donors with pre-existing memory response [1]	magnitude of phosphopeptide-specific IFN-γ responses of normal donor T-cells [1]	immunogenicity in vivo for HLA-A2 transgenic mice [2]	tumor-free survival ([3]; T-cells on days 3 and 7 plus IL-2, versus IL-2 only control, tumor-free = tumor size not >30 mm^2)	tumor outgrowth in comparison to control animals ([3]; control received IL-2 only)	recognition of phosphopeptide-pulsed targets expressing HLA-A2 compared with AAD [4]	response to HLA-A2+ targets pulsed with high levels of the non-phosphorylated peptide ([4]; IFN-γ / CD107a)	EC50 ([4]; human CD8 T-cells electroporated with TCR IVT RNA, phosphopeptide-pulsed AAD+ targets, IFN-γ / CD107a, read-out: peptide dose for half-maximal recognition) [pM]	recognition (CD107a / IFN-γ) of HLA-A2+ melanoma cell lines MelSwift and 1102Mel [5]	recognition of HLA-A2+ EBV-transformed lymphoblastoid cell line JY [5]	recognition of HLA-A2neg cancer cells T47D and SK-Mel-28 [5]	recognition of HLA-A2neg melanoma SK-Mel-28 or HLA-A2+ antigen-low ovarian carcinoma OV-90 [5]	level of recognition of cancer cells ([5]; compared with peptide-pulsed targets)	HLA-A2+ breast carcinomas recognized [5, 7]	HLA-A2+ colorectal carcinomas recognized [5, 7]	HLA-A2+ melanomas recognized [5, 7]	HLA-A2+ ovarian carcinomas recognized [5, 7]	specific killing of peptide-pulsed targets [6]
GLLGpSPVRA (GLLG[pS]PVRA; listed as Homo sapiens) [pCDC25b38-46]	strongly immunogenic	all four and four	surprisingly high	strongly immunogenic															
RVApSPTSGV (RVA[pS]PTSGV; listed as Homo sapiens) [pIRS-21097-1105]	strongly immunogenic	2/4	surprisingly high	strongly immunogenic															
B1					enhanced tumor-free survival	delayed outgrowth	at least as well as those expressing AAD	Neither cell produced IFN-γ or upregulated CD107a	400 to 800	recognized two HLA-A2^+ melanomas	did recognize	did not recognize	failed to recognize	relatively low	3/3	did not recognize	3/4	did not recognize	killed pCDC25b38-46-pulsed but not pIRS-21097-1105 or pβ-catenin30-39-pulsed targets
